{"source": "paper PMC9065369", "about": "(Cell Reports, 2022)", "target": "Mono ubiquitin (UniProt P0CG48 1-76)", "assay": "ITC"}
{"binder": "hsHDAC6 (1108-1215) (domain or fragment) TPLPWCPHLVAVCPIPAAGLDVTQPCGDCGTIQENWVCLSCYQVYCGRYINGHMLQHHGNSGHPLVLSYIDLSAWCYYCQAYVHHQALLDVKNIAHQNKFGEDMPHPH", "values": [{"measurement": "Kd", "result": "5.16 ± 0.47", "unit": "µM"}]}
